Results published in patent publication US20260007703A1.

Biological target: CD47 on A20 murine lymphoma cells (mouse) (UniProt Q61735)
Test: cell-based or functional assay

UniProt Q61735, sequence (Q61735 19-303): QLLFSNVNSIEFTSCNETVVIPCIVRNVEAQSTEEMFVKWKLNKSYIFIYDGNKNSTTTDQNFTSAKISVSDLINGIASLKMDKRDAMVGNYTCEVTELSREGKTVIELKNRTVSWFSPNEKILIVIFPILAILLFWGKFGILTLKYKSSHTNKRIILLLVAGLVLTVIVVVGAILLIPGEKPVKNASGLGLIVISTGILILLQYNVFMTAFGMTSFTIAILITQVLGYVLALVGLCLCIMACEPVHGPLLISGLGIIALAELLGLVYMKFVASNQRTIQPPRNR

- phagocytosis of DiI-labelled A20 tumor cells by bone marrow-derived macrophages: 60 % increase
Substance: FITC-labeled anti-mouse CD47 monoclonal antibody, clone miap301
